Measurements: patent publication US10894036B2, “Use of marizomib for the treatment of central nervous system (CNS) cancers” (Celgene International II Sàrl, priority 2016, dated 2021)

Assay: Phase 1/2 MRZ + BEV and MRZ monotherapy in recurrent G4 MG: adverse events, DLT
Details: MRZ+BEV
Protocol: The clinical trial was a Phase 1, dose-escalation (3+3 design) followed by dose-expansion at recommended Phase 2 Dose (RP2D).
The drugs were infused on 28-Day Cycles. Tumor response is assessed every other cycle by RANO criteria.
The safety data will be presented in individual listings and summary tables, including frequency tables for adverse events and frequency and shift tables for laboratory variables. The safety population will be all subjects who received at least one dose of either study drug in Phase 1 or MRZ in Phase 2.

For bevacizumab [reference compound], the “Ear Infection: # pts, related to BEV” value (12 Sep. 2016) was 0, the “Epistaxis: # pts, related to BEV” value (12 Sep. 2016) was 7 and the “Falls: # pts, related to BEV” value (12 Sep. 2016) was 0. For the same substance, the “Fatigue: # pts, related to BEV” value (12 Sep. 2016) was 0, the “Fracture of Femur: # pts, related to BEV” value (12 Sep. 2016) was 0 and the “Hallucination: # pts, related to BEV” value (12 Sep. 2016) was 0. For the same substance, the “Headache: # pts, related to BEV” value (12 Sep. 2016) was 1, the “Hemiparesis: # pts, related to BEV” value (12 Sep. 2016) was 0 and the “Hyperglycemia: # pts, related to BEV” value (12 Sep. 2016) was 0. The “Hypertension: # pts, related to BEV” value (12 Sep. 2016) was 13, the “Hypokalemia: # pts, related to BEV” value (12 Sep. 2016) was 0 and the “Hyponatremia: # pts, related to BEV” value (12 Sep. 2016) was 0. For the same substance, the “Hypotension: # pts, related to BEV” value (12 Sep. 2016) was 0, the “Infusion Site Pain: # pts, related to BEV” value (12 Sep. 2016) was 0 and the “Insomnia: # pts, related to BEV” value (12 Sep. 2016) was 1. The “Lymphocyte Count Decreased: # pts, related to BEV” value (12 Sep. 2016) was 0, the “Muscular Weakness: # pts, related to BEV” value (12 Sep. 2016) was 0 and the “Nausea: # pts, related to BEV” value (12 Sep. 2016) was 0. The “Optic Nerve Disorder: # pts, related to BEV” value (12 Sep. 2016) was 1, the “Pyramidal Tract Syndrome: # pts, related to BEV” value (12 Sep. 2016) was 0 and the “Tumor Metastasis: # pts, related to BEV” value (12 Sep. 2016) was 0. The “Vision Blurred: # pts, related to BEV” value (12 Sep. 2016) was 0, the “Vomiting: # pts, related to BEV” value (12 Sep. 2016) was 0 and the “Anaemia: # events related to BEV” value (17 May 2016) was 0. For the same substance, the “Aphasia: # events related to BEV” value (17 May 2016) was 0, the “Appendicitis Perforated: # events related to BEV” value (17 May 2016) was 0 and the “Asthenia: # events related to BEV” value (17 May 2016) was 0. For the same substance, the “Ataxia: # events related to BEV” value (17 May 2016) was 0, the “Confusional State: # events related to BEV” value (17 May 2016) was 0 and the “Constipation: # events related to BEV” value (17 May 2016) was 0. The “Convulsion: # events related to BEV” value (17 May 2016) was 0, the “Delusion: # events related to BEV” value (17 May 2016) was 0 and the “Diarrhoea: # events related to BEV” value (17 May 2016) was 0. The “Dizziness: # events related to BEV” value (17 May 2016) was 0, the “Dysarthria: # events related to BEV” value (17 May 2016) was 0 and the “Dysphagia: # events related to BEV” value (17 May 2016) was 0. For the same substance, the “Dysphonia: # events related to BEV” value (17 May 2016) was 10, the “Dyspnoea: # events related to BEV” value (17 May 2016) was 0 and the “Ear Infection: # events related to BEV” value (17 May 2016) was 0. For the same substance, the “Embolism: # events related to BEV” value (17 May 2016) was 1, the “Epistaxis: # events related to BEV” value (17 May 2016) was 8 and the “Fatigue: # events related to BEV” value (17 May 2016) was 0. The “Hallucination: # events related to BEV” value (17 May 2016) was 0, the “Hemiparesis: # events related to BEV” value (17 May 2016) was 0 and the “Hyperglycemia: # events related to BEV” value (17 May 2016) was 0. For the same substance, the “Hypokalemia: # events related to BEV” value (17 May 2016) was 0, the “Hypotension: # events related to BEV” value (17 May 2016) was 0 and the “Insomnia: # events related to BEV” value (17 May 2016) was 0. The “Lymphocyte Count Decreased: # events related to BEV” value (17 May 2016) was 0, the “Muscular Weakness: # events related to BEV” value (17 May 2016) was 0 and the “Nausea: # events related to BEV” value (17 May 2016) was 0. For the same substance, the “Pyramidal Tract Syndrome: # events related to BEV” value (17 May 2016) was 0, the “Vomiting: # events related to BEV” value (17 May 2016) was 0 and the “Anaemia: # patients, AE related to labelled agent (BEV, MRZ, Both)” value (36 pts, as of 12 Sep. 2016) was 0. The “Anxiety: # patients, AE related to labelled agent (BEV, MRZ, Both)” value (36 pts, as of 12 Sep. 2016) was 0, the “Aphasia: # patients, AE related to labelled agent (BEV, MRZ, Both)” value (36 pts, as of 12 Sep. 2016) was 0 and the “Appendicitis Perforated: # patients, AE related to labelled agent (BEV, MRZ, Both)” value (36 pts, as of 12 Sep. 2016) was 0. The “Asthenia: # patients, AE related to labelled agent (BEV, MRZ, Both)” value (36 pts, as of 12 Sep. 2016) was 0, the “Ataxia: # patients, AE related to labelled agent (BEV, MRZ, Both)” value (36 pts, as of 12 Sep. 2016) was 0 and the “Confusional State: # patients, AE related to labelled agent (BEV, MRZ, Both)” value (36 pts, as of 12 Sep. 2016) was 0. The “Constipation: # patients, AE related to labelled agent (BEV, MRZ, Both)” value (36 pts, as of 12 Sep. 2016) was 0, the “Convulsion: # patients, AE related to labelled agent (BEV, MRZ, Both)” value (36 pts, as of 12 Sep. 2016) was 0 and the “Delusion: # patients, AE related to labelled agent (BEV, MRZ, Both)” value (36 pts, as of 12 Sep. 2016) was 0. The “Depressed Level of Consciousness: # patients, AE related to labelled agent (BEV, MRZ, Both)” value (36 pts, as of 12 Sep. 2016) was 0, the “Diarrhoea: # patients, AE related to labelled agent (BEV, MRZ, Both)” value (36 pts, as of 12 Sep. 2016) was 0 and the “Dizziness: # patients, AE related to labelled agent (BEV, MRZ, Both)” value (36 pts, as of 12 Sep. 2016) was 0. For the same substance, the “Dysarthria: # patients, AE related to labelled agent (BEV, MRZ, Both)” value (36 pts, as of 12 Sep. 2016) was 0, the “Dysphagia: # patients, AE related to labelled agent (BEV, MRZ, Both)” value (36 pts, as of 12 Sep. 2016) was 0 and the “Dysphonia: # patients, AE related to labelled agent (BEV, MRZ, Both)” value (36 pts, as of 12 Sep. 2016) was 10. The “Dyspnoea: # patients, AE related to labelled agent (BEV, MRZ, Both)” value (36 pts, as of 12 Sep. 2016) was 0, the “Ear Infection: # patients, AE related to labelled agent (BEV, MRZ, Both)” value (36 pts, as of 12 Sep. 2016) was 0 and the “Epistaxis: # patients, AE related to labelled agent (BEV, MRZ, Both)” value (36 pts, as of 12 Sep. 2016) was 7. The “Falls: # patients, AE related to labelled agent (BEV, MRZ, Both)” value (36 pts, as of 12 Sep. 2016) was 0, the “Fatigue: # patients, AE related to labelled agent (BEV, MRZ, Both)” value (36 pts, as of 12 Sep. 2016) was 0 and the “Fracture of Femur: # patients, AE related to labelled agent (BEV, MRZ, Both)” value (36 pts, as of 12 Sep. 2016) was 0. The “Hallucination: # patients, AE related to labelled agent (BEV, MRZ, Both)” value (36 pts, as of 12 Sep. 2016) was 0, the “Headache: # patients, AE related to labelled agent (BEV, MRZ, Both)” value (36 pts, as of 12 Sep. 2016) was 1 and the “Hemiparesis: # patients, AE related to labelled agent (BEV, MRZ, Both)” value (36 pts, as of 12 Sep. 2016) was 0. The “Hyperglycemia: # patients, AE related to labelled agent (BEV, MRZ, Both)” value (36 pts, as of 12 Sep. 2016) was 0, the “Hypertension: # patients, AE related to labelled agent (BEV, MRZ, Both)” value (36 pts, as of 12 Sep. 2016) was 13 and the “Hypokalemia: # patients, AE related to labelled agent (BEV, MRZ, Both)” value (36 pts, as of 12 Sep. 2016) was 0. The “Hyponatremia: # patients, AE related to labelled agent (BEV, MRZ, Both)” value (36 pts, as of 12 Sep. 2016) was 0, the “Hypotension: # patients, AE related to labelled agent (BEV, MRZ, Both)” value (36 pts, as of 12 Sep. 2016) was 0 and the “Infusion Site Pain: # patients, AE related to labelled agent (BEV, MRZ, Both)” value (36 pts, as of 12 Sep. 2016) was 0. The “Insomnia: # patients, AE related to labelled agent (BEV, MRZ, Both)” value (36 pts, as of 12 Sep. 2016) was 1, the “Lymphocyte Count Decreased: # patients, AE related to labelled agent (BEV, MRZ, Both)” value (36 pts, as of 12 Sep. 2016) was 0 and the “Muscular Weakness: # patients, AE related to labelled agent (BEV, MRZ, Both)” value (36 pts, as of 12 Sep. 2016) was 0. For the same substance, the “Nausea: # patients, AE related to labelled agent (BEV, MRZ, Both)” value (36 pts, as of 12 Sep. 2016) was 0, the “Optic Nerve Disorder: # patients, AE related to labelled agent (BEV, MRZ, Both)” value (36 pts, as of 12 Sep. 2016) was 1 and the “Pyramidal Tract Syndrome: # patients, AE related to labelled agent (BEV, MRZ, Both)” value (36 pts, as of 12 Sep. 2016) was 0. For the same substance, the “Tumor Metastasis: # patients, AE related to labelled agent (BEV, MRZ, Both)” value (36 pts, as of 12 Sep. 2016) was 0, the “Vision Blurred: # patients, AE related to labelled agent (BEV, MRZ, Both)” value (36 pts, as of 12 Sep. 2016) was 0 and the “Vomiting: # patients, AE related to labelled agent (BEV, MRZ, Both)” value (36 pts, as of 12 Sep. 2016) was 0.
